Test: soluble on expression in E. coli; label from the status in PepcDB or PDB records

Sequence	soluble on expression in E. coli
MSSQIPFTVDHVGSFLRPETIKKARKKVQAGALSQAELRLIEDEEIKALVAKQKAGGLRGITDGEFRRGFWHIDFLEGLNGVTGYIPETGYNQTFHGKAAPAYNIRVVDKISFPTQHPFLEDFSFLKEVVEVGDGTVAKATIPSPTMILRQEILSNDGTSRIQTIYPEIGAFYKDLAQTYKDAIAAFYERGCRYLQFDDTNWAFLADQTKQEELRAKGIQPEEIAQVCTTIINEALAGKPEDLTVTTHICRGNHASSWLFSGGYEPIAKELFATNYDGFFLEYDSDRAGDFSPLRHWQNNGSKVVLGLVTSKFPELEETEQVKARIEEAQQFVPLENLSISPQCGFASTEEGNRLTEKEQWRKVQLLQEIAREVWLEHHHHHH	soluble
MAETKIVVGPQPFSVGEEYPWLAERDEDGAVVTFTGKVRNHNLGDSVNALTLEHYPGMTEKALAEIVDEARNRWPLGRVTVIHRIGELWPGDEIVFVGVTSAHRSSAFEAGQFIMDYLKTRAPFWKREATPEGDRWVEARESDQQAAKRW	soluble
MGSDKIHHHHHHMILDTAPHISSVGQVKEFFLARQPILDQNQNLIAYELLFRRAGVRAPVSAEDTRGAASIIAHTSELGIENVTGSALGFFNVNSTLLMGDLVNFLPAEKVVFEFPQTDKITPELVRRVAELAKAGYRFALDDVITLSEYIKPLLPFVEIIKIDTSVMTYADLAMLVRQFKQARKVLLADKVETLEQFQNCHELGFDYYQGYYFAKPALLSGKKLATSQLAIMELMTLVARDADTIEIEQRIKKEVSLCLSLLRLVNTPAMGVTKSIHSLSEALMVLGRRQLQRWLQIQIYVGPDPQIQFGSPLLLLAATRGKLLELVAQKLQPANRSMADIAFTVGILSLLDALFGQHMERILRQIVLSEEITEALLYRTGFYGDLLKLAEYLEKPGEAGRLLVPLLARLGLPIEELYPFQLEAFEWSNSLLPTL	not soluble
KSPVREPVDNLSPEERDARTVFCMQLAARIRPRDLEDFFSAVGKVRDVRIISDRNSRRSKGIAYVEFCEIQSVPLAIGLTGQRLLGVPIIVQASQAEKNRL	soluble
MKAIVTLNTTGAQLSVPASSRNLLETLEYHQVPVEYQCRSGYCGSCRMRLLKGEVCYLQQPLAFIQAGEILPCCCQPKGNIEIEF	not soluble
MAHHHHHHMTLETTPAPTFSSKKELYDWLVKQVEALVHDMSKRFTPQANLVIGLSNTAALCFYELNRFCNPEAALEKLRVNWFGFYLFQAPGLLALGPFQGRPACTEIRVGKGVCGTVAESGESMVVQSVHEFPGHIACDSASKSEIAVPVLIENGSVVAVIDVDSTELGHFSEEDREGLERMAAVLAQHLDFPMARALAVNPALGLPGYSALAGGEKALQPHGDAEAVPQATPVTTTTTTPATVTAVTRIPFFKVEVKQPDVTTKCVGGWQFTRTNLDRIMTQDETKQLQDSLGISALPEIAFQGKTLSVSPESDREHPWLHFSVEALMCSAAEYYQTEEFKTLVNPQLRIPVSAGWESFHFEKYDPKVDWAWRNNFCGLVPDRGRLVERPRDAADAPGINWDILKDTSLLILFYGDFDMMEDDLRDHGMVTSSVKYRVMSSAFFVLFRHFVRVDNHEIWMREVRVFHEFGKTRTPSGVPHIVFLEQLRHVRIAEPVEGVDWKSMSPDAISAKATVLLSREWMLEKVATA	not soluble
AENNNLKLASTMEGRVEQLAEQRQVIEAGGGERRVEKQHSQGKQTARERLNNLLDPHSFDEVGAFRKHRTTLFGMDKAVVPADGVVTGRGTILGRPVHAASQDFTVMGGSAGETQSTKVVETMEQALLTGTPFLFFYDSGGARIQEGIDSLSGYGKMFFANVKLSGVVPQIAIIAGPCAGGASYSPALTDFIIMTKKAHMFITGPQVIKSVTGEDVTADELGGAEAHMAISGNIHFVAEDDDAAELIAKKLLSFLPQNNTEEASFVNPNNDVSPNTELRDIVPIDGKKGYDVRDVIAKIVDWGDYLEVKAGYATNLVTAFARVNGRSVGIVANQPSVMSGCLDINASDKAAEFVNFCDSFNIPLVQLVDVPGFLPGVQQEYGGIIRHGAKMLYAYSEATVPKITVVLRKAYGGSYLAMCNRDLGADAVYAWPSAEIAVMGAEGAANVIFRKEIKAADDPDAMRAEKIEEYQNAFNTPYVAAARGQVDDVIDPADTRRKIASALEMYATKRQTRPAKKHGNFPC	soluble
MGSDKIHHHHHHMEKLYEIYTGGAEDSFEVGKLLFEENSWQLYLTLDELGRDDSLLLIRKPAVTRLLDQSDYLAEIQRRRKMLTQKGLADPFKLEDKVTLIKSVGSFMDLLPGQVVYFGLEGEDYQQWGYIDEISAGQVNFAAYPSGKYRPFAGEVAVSQLRRLAAFSGEWLLDNPKLRDTEDTTVDGLREVHLKEDPASFAVGRLLCADDDFSLYLTVDEIGRDDSLLLVKKLAVDRVIDQSEYLQDTSRCRRQLKEKGLEDPFEVQGKAANIKQMQDFWRLAAGQVVSFVMKDEEEAEYGILKSKEGDALSFGQYPSGKYETFAGQISLVEVDRLEAFGGELTLENNNC	not soluble
MGSDKIHHHHHHMAAPEKTAGSKGEATQMRDAPALVGSDRQKILRAGFIPLVDASVLIAAAEFGFADREGLILDLVKDVSWANVRDRLAFRQFDIAHMLSPMPVASMLGLGSNPSPTITPFSLGRGGNAITLSTRLFARMKALTGLSETAGALENARALKLVLDDMRARGEAPPTLGMTYPFSSHNYEFRYWLAAGGIHPDHDVKLVVVPPPMTSDALAAGAIDGFCVGAPWNIVAAERGVGRIVAAKQDLWPSAPEKVIGMRPEWAESQQETVGRLLTALDAAASWCDLADNHDALSGALADPRYIGAPQSIIRRVLAGEFSIDSQGNRRVIEKYFTFHGDHANYPRQSQSLWIYSQMIRWGQAELSETGVNAALSAYRPDIYRAALGDGKAPGDADIRIEGQDEGDRFVDGFVFDPADIAGYVNSFAVRTSVPVSAPSGEA	not soluble
RAGYWEWNVENGTILIDRQWAVISGYNSADFDMLTMEQWRELCHPADLGVVTKSIEELLDGSMERLELELRVRHKNGEWIRVLDCGKVTGRSK	not soluble
MSRRLPPLNSLRVFEAAARHLSFTRAAEELFVTQAAVSHQIKALEEFLGLKLFRRRNRSLLLTEEGQSYFLDIKEIFSSLSEATDKVLERSAKGALTISLPPSFAIQWLVPRLSDFNNQEPDIDVRIKAVDMDEGSLTEDVDVAIYYGRGNWPGLRVELLYQEQLLPLCSPQVLLNEKPLATIDDLRFHTLLHDTSRKDWKQFVKHYELAGMNVNQGPIFSHSTMVLQAAAHGQGIALGNNVLAQPELDAGRLVAPFEEVLVSKNAFYLVCNEKQADTGRIATFREWILSKARSEQEIVDDE	soluble
MGSDKIHHHHHHMYKIGIDVGGTNTDAVILDENQQLIHSVKMPTSEDIETGITESLHRVLSETGIDRSKVTHAMLGTTQCTNAIVERKKLAKVGVLRLGYPATASVLPYTAWPEDMVGFLSGKYKLTGGGYEYDGQVLSEINEAEIRETLASWKGEVESVAVVGVFSSLKNDQELAVQKIIEEELGADIPVSISSSVGSVGLIERENATILNAALFKVIAATSDGFEKALEQEGIEHAEIYLCQNDGTLMSLNYARQFPILTIACGPTNSIRGASYLAGLKDAMVLDVGGTTSDIGVLTDGFPRESSLAVDVGGVRTNFRMPDIISIGLGGGSIVREKDGDITIGPDSVGYRISEEALVFGGKTMTTTDIAVRLGMAEIGNPELVAHIPTDFAEKAYKKIADMTEDAIDKMKTSSGSVSLVLVGGGSMIIPDEISGVAQIFRDKNGPVANAIGASISQISGQYEQIYIYSQIEREEALQDAEQKAREQATLAGAVTDSIEVVEVEEIPLAYHPGNATRLRVKVVGDLV	not soluble
MSLSELARRLNQCKKPVGDQGKVVVDDMNERHYELTGWGLDKIKIDKAYKMLDIGCGGGRTVNRLSKAAEEGEVYGIDYSSDCVRWASEYNKELIKEGRVHISEASVEKLPFEDNKFDVVTAVETIYFWPNVEENIKEVNRVLKKGGKFIIINEIYDDDKFRERNNEFAKNSNMKIYSPEKLKSLLKNAGYLNVEMEIKEENNWICYVSEKEGHHHHHH	soluble
MGSDKIHHHHHHMQSNRLTESSAEIHDMSLRIYQTPVQHLPEDLYVPPQAFAIWLEQFAGPLDFLLYLVKKNNVDLTRMPILPITEQYLAYISKLDTNHFELAGDYLLMASTLIAIKTELLLPMPEMPTDERDPKAELIERLEEYTQVKAASQRLDNLIRLERDVFLAMVSMPNQDIMNSELPSYSPTLLIDSLFKMQLQPDYQMHSIKVDAVPLADRIASISRQLSTDGARSFHELLDKAQGKIGVVVSFVAVLELIKRQLIGVVANNVDSGVSTATNADGSLSTHSDLLEKLTLEWLA	not soluble
MKFAIIIPFYNAEKRLALSIDSIIKQTYSFLKHVEVLLINDGSTDRSSAIAHSYAEKYPSNIRVFDVPNGGPSKARNIGIHNVQEDTDFVGFLDADDLLSPNMLFSMVNFLEKSAVNMLVPAFYYLDDFGKKQKISPHKLNDRFTNGNRVVAIEKEPQAIHFYIGGTFFRFESLKQFVFDETLNFAEDQLLITKFLLENRSYGLIADAGYYYYRDLKQKGSLVSSAWKQPERYTPFLQKVYQTYLTNSKEIFGEVIPYVQYLIAYHAKLFFYKENIYFKEVLNEQEQEIFVRELQKILQEVGPEMIVALDTPLVVKEMMLSILRNGWPVQFKTAELEEVPLVTVKENYRPGKAVTVELLLEEARETLSDGGEFFASTSVGTAQTKVVKRKTAQTIWDIVVREEGTLEKVVTRLKPYQLKVQVFYQDKNQKITMTDLNVIKSVLGKLKRNKALKRKFKQGGVSLEHHHHHH	soluble
MKWHGLPACDSNPNSTTEFCRTRRPTKTMNSPATQTATPTNVDIASIVEQVLRRLRDQTNTNGSTSKPATHAPSAHVLSDKVISVDVIRGIPSGVTQVQLSGGIVTPAARDEMRARGISLAGAESTSAAAIKPASNSGKRFIQLHTDTSSKSIRDALARQLALRGVDHCPRAHRSVIVTKHPATALLGRIQSGARAVLITRLEDIPRFASEIDADTFVLDMQRFNLVALVNAATSIAQLSTSSTSQEAT	not soluble
MEVDPGSDDVEADRETRAQKLKLKRNVKFRAQMRRFDEYCGVTNLTVDDLNWPLISGIPLQRQRLTGATYYDDSLLDQNPWDEFSIDRFLEITSIQLITAGAGYERNDEITRFVFQRTMKTIVTYCNFMYDLARRNGKVQITRFELQDLIHRDEFRFYMYFRQFLPNPDPNCTAFSNHYTSLLHTLYFNIPGMPQFWNNSQMYNYAATRGQRLVQNIAAFYPPEYFWNEDESKYHTTFVVPRGTEFSKFYARRFHEALGMPPLENEIITVLDWLAKLCILEIVYHTTIWCDITGFGGLPRIEHYRLAMENVEDIIFDLAIDDFSISRLQLQISPFEISRYSPLDVSGYYETIKRKKDIEEYQNRFYEVHYSDDVRIMNVYATDCSRKR	not soluble
RNHWVSQYSSVKQEKNEKWQRHWREILGEDTEDLPPYRYDYGLYSGIWQANETLREQCFAALTHGNSVYERVKAFQKMTTHEHNTDDQILLSKLAQLENEIIQALEQHSQKNVSIETGSGTLCKESKHNVYRHENGPTEEQLYNSINLQHDLDRELRNIIYDRLGDDGLDEYFFLRAPLEELTENETAINWMLWGLVSDHFDVDPYQTALELNLMNAEPRWGQDERFVVVTTAA	not soluble

From the DeepSol protein solubility set
